Read-outs that look alike come from different tables or passages of the source.
B1: mMM1-16 monoclonal antibody (mouse variable regions, human IgG1/Igκ constant regions) (antibody, V domains shown)
VH: QIQLQQSGAELARPGASVKLSCKASGYTFITYWIQWVKQRPGQGLEWIGAIYPGDGDTRYTQKFKAKATLTADKSSSTAYMQLSTLTSEDSAVYFCAKGDTYPAAMDYWGQGTSVTVSS
VL: DIQMTQSPASLSASVGETVTITCRTSGNIHNYLAWYQQKQGRSPQLLVNNAKTLADGVPSRFSGSGSGTQYSLKINSLQPEDIGSYYCQHFWITPYTFGGGTKLEIK
B2: hmMM1-40, humanized mMM1-40 monoclonal antibody (antibody, V domains shown)
VH: QVQLVQSGAEVKKPGASVKVSCKASGYIFTRYWMHWVRQAPGQGLEWMGYINPSTGYTEYNQKFKDRVTMTRDTSTSTVYMELSSLRSEDTAVYYCARSDYTNYVFEYWGQGTLVTVSS
VL: DVVMTQSPLSLPVTLGQPASISCRSSQSLVHSNGNTYLHWFQQRPGQSPRRLIYKVSNRFSGVPDRFSGSGSGTDFTLKISRVEAEDVGVYYCSQSTHVPYTFGGGTKVEIK

Experiments:
Test in all cases: SPR
VACV , residues A3-G181 [1] = target: T1, VACV , residues A3-G181 (vaccinia virus (VACV), UniProt P07612 3-181)
[2] = target: T2, MPXV [change], residues A3-G181, C-terminal 6×His tag (pCAGGS, Expi293F) (mpox virus (MPXV))
VACV , residues A3-G181 [3] = target: T1, VACV , residues A3-G181; remark: listed apart in the source
VACV , residues A3-G181 [4] = target: T1, VACV , residues A3-G181; remark: listed apart in the source
[5] = target: T2, MPXV [change], residues A3-G181, …; remark: listed apart in the source

Row | Binder | Kd (VACV , residues A3-G181 [1]) | Kd [2] | koff (VACV , residues A3-G181 [3]) | Kd (VACV , residues A3-G181 [4]) | Kd [5]
1 | B1 | 0.72 nM | 6.3 nM |  |  | 
2 | B2 |  |  | 6.19e-05 s⁻¹ | 0.47 nM | 0.48 nM

— article PMC12514038 (2025)
